Assay results: paper PMC5499551
Like-named read-outs stand apart in the source and are kept apart here.

B1: Mrpl45 (dsDNA)
DNA 1: GGGTTTTTTTCACCGATTGTAAATAAGGTGTAACAATGTGTTAAGGAACCAGGA
DNA 2: TCCTGGTTCCTTAACACATTGTTACACCTTATTTACAATCGGTGAAAAAAACCC
B2: Lats2 (dsDNA)
DNA 1: GGCCGAGCGGGACATTCGCTACATTGTTGGCATTCCACGGGCG
DNA 2: CGCCCGTGGAATGCCAACAATGTAGCGAATGTCCCGCTCGGCC
B3: Lmo4 (dsDNA)
DNA 1: GGCATCTCCCATTATTGTTCCAAATCTCATTTCATTTTGAA
DNA 2: TTCAAAATGAAATGAGATTTGGAACAATAATGGGAGATGCC

Columns and labels:
Test in all cases: EMSA
DMRT1 = DMRT1 (mouse, UniProt Q9QZ59 1-374)
DMRT1, sequence (Q9QZ59 whole entry): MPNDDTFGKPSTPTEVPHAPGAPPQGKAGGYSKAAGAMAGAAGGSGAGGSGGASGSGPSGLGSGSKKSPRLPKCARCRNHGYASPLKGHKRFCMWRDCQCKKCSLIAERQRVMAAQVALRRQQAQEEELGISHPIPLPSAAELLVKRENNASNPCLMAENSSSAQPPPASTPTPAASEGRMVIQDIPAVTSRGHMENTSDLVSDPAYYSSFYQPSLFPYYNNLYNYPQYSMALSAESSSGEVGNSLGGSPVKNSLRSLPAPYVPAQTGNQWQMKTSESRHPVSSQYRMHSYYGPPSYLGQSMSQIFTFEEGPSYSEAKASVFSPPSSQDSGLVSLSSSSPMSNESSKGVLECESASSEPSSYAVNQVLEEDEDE

GATA4 = GATA4 (mouse, UniProt Q08369 1-441)
GATA4, sequence (Q08369 whole entry): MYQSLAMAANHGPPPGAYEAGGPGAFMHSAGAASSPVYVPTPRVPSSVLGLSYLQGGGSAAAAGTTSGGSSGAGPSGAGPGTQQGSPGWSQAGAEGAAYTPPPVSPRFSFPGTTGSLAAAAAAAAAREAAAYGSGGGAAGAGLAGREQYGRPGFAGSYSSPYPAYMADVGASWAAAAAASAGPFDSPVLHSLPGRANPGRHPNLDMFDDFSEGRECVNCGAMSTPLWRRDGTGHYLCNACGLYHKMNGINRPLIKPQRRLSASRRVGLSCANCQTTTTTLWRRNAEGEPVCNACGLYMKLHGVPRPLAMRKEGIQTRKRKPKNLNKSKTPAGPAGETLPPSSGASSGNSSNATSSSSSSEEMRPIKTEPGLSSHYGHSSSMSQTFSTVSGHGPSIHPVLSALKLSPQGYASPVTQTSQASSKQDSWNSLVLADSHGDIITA

SOX9 [1] = biological target: T1, SOX9 (UniProt P48436 1-509)
T1 sequence (P48436 whole entry): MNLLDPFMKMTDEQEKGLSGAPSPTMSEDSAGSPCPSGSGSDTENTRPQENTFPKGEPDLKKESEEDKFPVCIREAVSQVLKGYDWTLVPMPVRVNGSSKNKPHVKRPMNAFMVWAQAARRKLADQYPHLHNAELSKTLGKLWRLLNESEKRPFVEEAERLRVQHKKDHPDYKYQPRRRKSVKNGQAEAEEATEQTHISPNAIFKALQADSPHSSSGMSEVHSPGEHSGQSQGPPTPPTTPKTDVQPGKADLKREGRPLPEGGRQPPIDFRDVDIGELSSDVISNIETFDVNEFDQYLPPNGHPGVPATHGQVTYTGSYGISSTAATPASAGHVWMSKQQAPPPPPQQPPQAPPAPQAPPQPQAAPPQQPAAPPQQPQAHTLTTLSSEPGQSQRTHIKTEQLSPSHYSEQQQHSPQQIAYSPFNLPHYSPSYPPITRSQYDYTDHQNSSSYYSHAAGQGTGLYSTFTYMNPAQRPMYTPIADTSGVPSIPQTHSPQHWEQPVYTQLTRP

SOX9 [2] = biological target: T1, SOX9; remark: listed apart in the source

Binder | binding result (DMRT1) | binding result (GATA4) | binding result (SOX9 [1]) | binding result (SOX9 [2])
B1 | binds | binds | binds | 
B2 | binds | no binding |  | binds
B3 | no binding | binds | binds | 
